± gives the uncertainty stated by the source.
B1: TOX high mobility group box family member 3, residues 256 to 323; numbered along this chain, O15405 (parent)
chain: QKPVSAYALFFRDTQAAIKGQNPNATFGEVSKIVASMWDSLGEEQKQVYKRKTEAAKKEYLKALAAYR

Variants of: B1
Assay: abundance fitness (aPCA) (normalised: wild type 0, dead -1); higher = more abundant; growth selection in yeast, the domain comes from the species named
Details: Homo sapiens

Going from QKPVSAYALFFRDTGAAIKGQNPNATFGEVSKIVASMWDSLGEEQKQVYKRKTEAAKKEYLKALAAYR [Q15G] to QKPVSAYALFFRDTQAAIKGQNPNATFGEVSKIVASMWDSLGEEQKQVYKRKTEAAKYEYLKALAAYR [K58Y], the abundance fitness rises from -0.6 ± 0.12 to -0.279 ± 0.095.

Going from QKPVSAYALFFRDTQAAIKGQNPNATFGEVSKIVASMWDSLGEEQKQVYKRKTEAAKWEYLKALAAYR [K58W] to QKPVSAYALFFRDTQAAIKGQNPNATFGEVSKIVASMWDSLGEEQKQVYKRKTEAAKLEYLKALAAYR [K58L], the abundance fitness rises from -0.351 ± 0.083 to -0.135 ± 0.057.

QKPVSAYALFFRDTQAAIKSQNPNATFGEVSKIVASMWDSLGEEQKQVYKRKTEAAKKEYLKALAAYR [G20S] and QKPVSAYALFFRDTQAAIKTQNPNATFGEVSKIVASMWDSLGEEQKQVYKRKTEAAKKEYLKALAAYR [G20T] are within error of each other in abundance fitness: 0.1 ± 0.047 for the first, 0.038 ± 0.086 for the second.

First: QKPVSAYALFFRDTQAAIKGQNPNATFGEVSKIVASMWDSLGEEQKQVYKRKTEAARKEYLKALAAYR [K57R]
Second: QKPVSAYALFFRDTQAAIKGQNPNATFGEVSKIVASMWDSLGEEQKQVYKRKTEAAKKEYLKALAQYR [A66Q]
The abundance fitness of the first is lower: -0.164 ± 0.053 for the first, 0.093 ± 0.06 for the second.

Compared with QKPVSAYALFFRDTQAAIKGQNPNATFGEVSKIVASMWDSLGEEQKQVYKRKTEAAKKEYLKALAEYR [A66E], QKPVSAYALFFRDTQAAIKGQNPNATFGEVSKIVASMWDSLQEEQKQVYKRKTEAAKKEYLKALAAYR [G42Q] is lower in abundance fitness: 0.218 ± 0.067 for the first, -0.153 ± 0.09 for the second.

QKPVSAYALFFRDHQAAIKGQNPNATFGEVSKIVASMWDSLGEEQKQVYKRKTEAAKKEYLKALAAYR [T14H] and QKPVSAYALFFRDEQAAIKGQNPNATFGEVSKIVASMWDSLGEEQKQVYKRKTEAAKKEYLKALAAYR [T14E] are within error of each other in abundance fitness: -0.453 ± 0.34 for the first, -0.292 ± 0.057 for the second.

QKPVSAYALFFRDPQAAIKGQNPNATFGEVSKIVASMWDSLGEEQKQVYKRKTEAAKKEYLKALAAYR [T14P] and QKPVSAYALFFRDTQAAIKGQNPNATFGEVSKIVASMWPSLGEEQKQVYKRKTEAAKKEYLKALAAYR [D39P] are within error of each other in abundance fitness: -0.62 ± 0.12 for the first, -0.829 ± 0.11 for the second.

QKPVSAYALFFRDTQAAIKGQNPNATFGEVSKIVASMWQSLGEEQKQVYKRKTEAAKKEYLKALAAYR [D39Q] and QKPVSAYALFFRDTQAAIKGQNPNATFGEVSKIVASMWRSLGEEQKQVYKRKTEAAKKEYLKALAAYR [D39R] are within error of each other in abundance fitness: 0.003 ± 0.088 for the first, -0.016 ± 0.05 for the second.

QKAVSAYALFFRDTQAAIKGQNPNATFGEVSKIVASMWDSLGEEQKQVYKRKTEAAKKEYLKALAAYR [P3A] and QKEVSAYALFFRDTQAAIKGQNPNATFGEVSKIVASMWDSLGEEQKQVYKRKTEAAKKEYLKALAAYR [P3E] are within error of each other in abundance fitness: -0.213 ± 0.057 for the first, -0.199 ± 0.2 for the second.

Compared with QKDVSAYALFFRDTQAAIKGQNPNATFGEVSKIVASMWDSLGEEQKQVYKRKTEAAKKEYLKALAAYR [P3D], QKFVSAYALFFRDTQAAIKGQNPNATFGEVSKIVASMWDSLGEEQKQVYKRKTEAAKKEYLKALAAYR [P3F] is lower in abundance fitness: 0.375 ± 0.15 for the first, 0.125 ± 0.081 for the second.

First: QKPVSAYALFFRDTQAAIKGQNPNATFGEVSSIVASMWDSLGEEQKQVYKRKTEAAKKEYLKALAAYR [K32S]
Second: QKPVSAYALFFRDTQAAIKGQNPNATFGEVSQIVASMWDSLGEEQKQVYKRKTEAAKKEYLKALAAYR [K32Q]
The abundance fitness of the first is higher: -0.107 ± 0.053 for the first, -0.337 ± 0.097 for the second.

First: QKPVSAYFLFFRDTQAAIKGQNPNATFGEVSKIVASMWDSLGEEQKQVYKRKTEAAKKEYLKALAAYR [A8F]
Second: QKPVSAYALFFRDTQAAIKGQNPNATFPEVSKIVASMWDSLGEEQKQVYKRKTEAAKKEYLKALAAYR [G28P]
The abundance fitness of the first is lower: -0.33 ± 0.18 for the first, 0.05 ± 0.049 for the second.

Going from QKPVSAYALFFRDTQAAIKGQNPNATFREVSKIVASMWDSLGEEQKQVYKRKTEAAKKEYLKALAAYR [G28R] to QKPVSAYALFFRDTQAAIKGQNLNATFGEVSKIVASMWDSLGEEQKQVYKRKTEAAKKEYLKALAAYR [P23L], the abundance fitness falls from 0.118 ± 0.04 to -0.689 ± 0.085.

Going from QKPVSAYALFFRDTQAAIKGQNFNATFGEVSKIVASMWDSLGEEQKQVYKRKTEAAKKEYLKALAAYR [P23F] to QKPVSAYALFFRDTQAAIKGQNCNATFGEVSKIVASMWDSLGEEQKQVYKRKTEAAKKEYLKALAAYR [P23C], the abundance fitness rises from -1.16 ± 0.26 to -0.627 ± 0.21.

QKPVSAYALFFRDTQAAIKGQNQNATFGEVSKIVASMWDSLGEEQKQVYKRKTEAAKKEYLKALAAYR [P23Q] and QKPVSAYALFFRDTQAAIKGQNKNATFGEVSKIVASMWDSLGEEQKQVYKRKTEAAKKEYLKALAAYR [P23K] are within error of each other in abundance fitness: -0.241 ± 0.088 for the first, -0.37 ± 0.11 for the second.

QKPVSAYALFFRDTQAAIKGQNSNATFGEVSKIVASMWDSLGEEQKQVYKRKTEAAKKEYLKALAAYR [P23S] and QKPVWAYALFFRDTQAAIKGQNPNATFGEVSKIVASMWDSLGEEQKQVYKRKTEAAKKEYLKALAAYR [S5W] are within error of each other in abundance fitness: -0.335 ± 0.069 for the first, -0.491 ± 0.14 for the second.

Going from QKPVCAYALFFRDTQAAIKGQNPNATFGEVSKIVASMWDSLGEEQKQVYKRKTEAAKKEYLKALAAYR [S5C] to QAPVSAYALFFRDTQAAIKGQNPNATFGEVSKIVASMWDSLGEEQKQVYKRKTEAAKKEYLKALAAYR [K2A], the abundance fitness falls from -0.074 ± 0.11 to -0.264 ± 0.076.

Going from QKPVSAYALFFRDTQAAIKGQNPSATFGEVSKIVASMWDSLGEEQKQVYKRKTEAAKKEYLKALAAYR [N24S] to QKPVSAYALFFRDTQAAIKGQNPNATFGEVSKIVASMWDSNGEEQKQVYKRKTEAAKKEYLKALAAYR [L41N], the abundance fitness falls from 0.034 ± 0.052 to -1.16 ± 0.46.

QKPVSAYALFFRDTQAAIKGQNPNATFGEVSKIVASMWDSWGEEQKQVYKRKTEAAKKEYLKALAAYR [L41W] and QKPVSAYALDFRDTQAAIKGQNPNATFGEVSKIVASMWDSLGEEQKQVYKRKTEAAKKEYLKALAAYR [F10D] are within error of each other in abundance fitness: -1.05 ± 0.14 for the first, -0.752 ± 0.23 for the second.

First: QKPVSAYALKFRDTQAAIKGQNPNATFGEVSKIVASMWDSLGEEQKQVYKRKTEAAKKEYLKALAAYR [F10K]
Second: QKPVSAYALFFRDTQAAIKGQVPNATFGEVSKIVASMWDSLGEEQKQVYKRKTEAAKKEYLKALAAYR [N22V]
The abundance fitness of the first is lower: -0.946 ± 0.17 for the first, -0.149 ± 0.083 for the second.
